# T1: endogenous human zinc transporter 8 (ZnT8) in EndoC-βH1 cells (human, UniProt Q8IWU4 1-369)
# T1 construct: whole, on cells; Intracellular membrane protein, probed in fixed and permeabilised cells (in-cell ELISA), in SDS lysates (immunoblot) or in liposomes (SUVs) made from the cells; On blots two natural splice variants (A and B) are detected; also called endogenous ZnT8; SLC30A8 product
# T1 sequence (looked up): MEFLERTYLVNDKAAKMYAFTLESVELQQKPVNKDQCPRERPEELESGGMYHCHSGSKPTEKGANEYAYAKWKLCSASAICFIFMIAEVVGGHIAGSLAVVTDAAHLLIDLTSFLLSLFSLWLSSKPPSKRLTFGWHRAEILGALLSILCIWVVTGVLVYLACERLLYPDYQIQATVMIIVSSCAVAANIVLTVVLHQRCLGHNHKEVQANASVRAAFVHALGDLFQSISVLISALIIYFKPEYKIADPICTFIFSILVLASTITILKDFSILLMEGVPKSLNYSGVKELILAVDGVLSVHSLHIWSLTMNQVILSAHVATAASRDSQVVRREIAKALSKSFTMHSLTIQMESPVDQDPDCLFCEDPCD
# B1: anti-ZnT8 monoclonal antibody mAb20 (antibody, mouse IgG1, kappa, V domains shown)
# VH: QIQLVQSGPELKKPGETVKISCKASGYIFTNYPMHWVKQAPGKGLKWMGWINTYSGVPTHADDFKGRFAFSLETSANSAFLQINNLKNEDTATYFCTRSRITPTGGYAMDYWGQGTSVTVSS
# VL: DVVMTQTPLSLPVSLGDQASISCRSSQSLVHSNGNTYLHWYLQKPGQSPNLLISKVSNRFSGVPERFSGSGSGTDFTLKISRVEAEDLGVYFCSQNTHVPWTFGGGTKLEIKR
# notes: Mouse monoclonal antibody; Used free (1:600 of a 1 mg/ml stock), biotinylated, or crosslinked to Dynabeads through NHS-PEG5K-NHS; also called mouse mAb20; biotinylated mAb20
# Target: T1, endogenous human zinc transporter 8 …
# Assay: in-cell ELISA, 95×10^3 EndoC-βH1 cells against the same number of rat INS-1E cells
# Method: Next, mAb20 or a rabbit anti-HLA-I antibody (Proteintech, Cat. #15240-1-AP) was 1:600 or 1:60 diluted to Permeabilization/Wash Buffer I plus 0.5% BSA. Cells in each well were incubated with the diluted antibody solution for 2 hr at 37° C., washed once, and then exposed to a HRP-conjugated anti-mouse IgG (H+L) (Invitrogen, Cat. #62-6520) or anti-rabbit IgG (H+L) antibody (Invitrogen, Cat. #62-6120) in a 1:3000 dilution in Permeabilization/Wash Buffer I plus 0.1% BSA. After 1 hr incubation with the secondary antibody at RT, cells were washed three times to remove unbound antibodies before adding SuperSignal ELISA Femto Substrate (ThermoFisher Scientific, Cat. #37075). The HRP reaction was terminated at 5 min by transferring the reaction mixture to a 96-well opaque microplate for chemiluminescence quantification on a FlexStation-3 multi-mode microplate reader.
# Assay validation. A ZnT8-specific ELISA was developed to track the endogenous ZnT8 level in EndoC-βH1 cells immobilized to a 96-well plate by paraformaldehyde fixation, followed by immunostaining and horseradish peroxidase (HRP) chemiluminescence. The non-specific background was estimated using rat insulinoma INS-1E and human HEK293 cells as negative controls. […] The signal-to-noise ratio at 95×10^3 cells was 3.9 (Z′ score=0.8) over a background detected from a same number of INS-1E cells (FIG. 1A). […]
binder,measurement,value
B1,signal-to-noise ratio,3.9

# Reference: patent US20210302413A1 (Johns Hopkins, published 2021)
